Results taken from PMC8390553, “The DNA-binding protein CST associates with the cohesin complex and promotes chromosome cohesion” (The Journal of Biological Chemistry, 2021).

B1: SMC3, endogenous (HeLa) (natural protein, human (endogenous in HeLa), UniProt Q9UQE7 1-1217, looked up)
chain: MYIKQVIIQGFRSYRDQTIVDPFSSKHNVIVGRNGSGKSNFFYAIQFVLSDEFSHLRPEQRLALLHEGTGPRVISAFVEIIFDNSDNRLPIDKEEVSLRRVIGAKKDQYFLDKKMVTKNDVMNLLESAGFSRSNPYYIVKQGKINQMATAPDSQRLKLLREVAGTRVYDERKEESISLMKETEGKREKINELLKYIEERLHTLEEEKEELAQYQKWDKMRRALEYTIYNQELNETRAKLDELSAKRETSGEKSRQLRDAQQDARDKMEDIERQVRELKTKISAMKEEKEQLSAERQEQIKQRTKLELKAKDLQDELAGNSEQRKRLLKERQKLLEKIEEKQKELAETEPKFNSVKEKEERGIARLAQATQERTDLYAKQGRGSQFTSKEERDKWIKKELKSLDQAINDKKRQIAAIHKDLEDTEANKEKNLEQYNKLDQDLNEVKARVEELDRKYYEVKNKKDELQSERNYLWREENAEQQALAAKREDLEKKQQLLRAATGKAILNGIDSINKVLDHFRRKGINQHVQNGYHGIVMNNFECEPAFYTCVEVTAGNRLFYHIVDSDEVSTKILMEFNKMNLPGEVTFLPLNKLDVRDTAYPETNDAIPMISKLRYNPRFDKAFKHVFGKTLICRSMEVSTQLARAFTMDCITLEGDQVSHRGALTGGYYDTRKSRLELQKDVRKAEEELGELEAKLNENLRRNIERINNEIDQLMNQMQQIETQQRKFKASRDSILSEMKMLKEKRQQSEKTFMPKQRSLQSLEASLHAMESTRESLKAELGTDLLSQLSLEDQKRVDALNDEIRQLQQENRQLLNERIKLEGIITRVETYLNENLRKRLDQVEQELNELRETEGGTVLTATTSELEAINKRVKDTMARSEDLDNSIDKTEAGIKELQKSMERWKNMEKEHMDAINHDTKELEKMTNRQGMLLKKKEECMKKIRELGSLPQEAFEKYQTLSLKQLFRKLEQCNTELKKYSHVNKKALDQFVNFSEQKEKLIKRQEELDRGYKSIMELMNVLELRKYEAIQLTFKQVSKNFSEVFQKLVPGGKATLVMKKGDVEGSQSQDEGEGSGESERGSGSQSSVPSVDQFTGVGIRVSFTGKQGEMREMQQLSGGQKSLVALALIFAIQKCDPAPFYLFDEIDQALDAQHRKAVSDMIMELAVHAQFITTTFRPELLESADKFYGVKFRNKVSHIDVITAEMAKDFVEDDTTHG
notes: SMC3, core subunit of the cohesin complex, endogenous; also called cohesin subunit; source: endogenous, in fixed HeLa 1.2.11 cells
B2: PolA1, subunit of DNA polymerase α-primase, endogenous (HeLa) (natural protein, human (endogenous in HeLa), UniProt P09884 1-1462, looked up)
chain: MAPVHGDDSLSDSGSFVSSRARREKKSKKGRQEALERLKKAKAGEKYKYEVEDFTGVYEEVDEEQYSKLVQARQDDDWIVDDDGIGYVEDGREIFDDDLEDDALDADEKGKDGKARNKDKRNVKKLAVTKPNNIKSMFIACAGKKTADKAVDLSKDGLLGDILQDLNTETPQITPPPVMILKKKRSIGASPNPFSVHTATAVPSGKIASPVSRKEPPLTPVPLKRAEFAGDDVQVESTEEEQESGAMEFEDGDFDEPMEVEEVDLEPMAAKAWDKESEPAEEVKQEADSGKGTVSYLGSFLPDVSCWDIDQEGDSSFSVQEVQVDSSHLPLVKGADEEQVFHFYWLDAYEDQYNQPGVVFLFGKVWIESAETHVSCCVMVKNIERTLYFLPREMKIDLNTGKETGTPISMKDVYEEFDEKIATKYKIMKFKSKPVEKNYAFEIPDVPEKSEYLEVKYSAEMPQLPQDLKGETFSHVFGTNTSSLELFLMNRKIKGPCWLEVKSPQLLNQPVSWCKVEAMALKPDLVNVIKDVSPPPLVVMAFSMKTMQNAKNHQNEIIAMAALVHHSFALDKAAPKPPFQSHFCVVSKPKDCIFPYAFKEVIEKKNVKVEVAATERTLLGFFLAKVHKIDPDIIVGHNIYGFELEVLLQRINVCKAPHWSKIGRLKRSNMPKLGGRSGFGERNATCGRMICDVEISAKELIRCKSYHLSELVQQILKTERVVIPMENIQNMYSESSQLLYLLEHTWKDAKFILQIMCELNVLPLALQITNIAGNIMSRTLMGGRSERNEFLLLHAFYENNYIVPDKQIFRKPQQKLGDEDEEIDGDTNKYKKGRKKAAYAGGLVLDPKVGFYDKFILLLDFNSLYPSIIQEFNICFTTVQRVASEAQKVTEDGEQEQIPELPDPSLEMGILPREIRKLVERRKQVKQLMKQQDLNPDLILQYDIRQKALKLTANSMYGCLGFSYSRFYAKPLAALVTYKGREILMHTKEMVQKMNLEVIYGDTDSIMINTNSTNLEEVFKLGNKVKSEVNKLYKLLEIDIDGVFKSLLLLKKKKYAALVVEPTSDGNYVTKQELKGLDIVRRDWCDLAKDTGNFVIGQILSDQSRDTIVENIQKRLIEIGENVLNGSVPVSQFEINKALTKDPQDYPDKKSLPHVHVALWINSQGGRKVKAGDTVSYVICQDGSNLTASQRAYAPEQLQKQDNLTIDTQYYLAQQIHPVVARICEPIDGIDAVLIATWLGLDPTQFRVHHYHKDEENDALLGGPAQLTDEEKYRDCERFKCPCPTCGTENIYDNVFDGSGTDMEPSLYRCSNIDCKASPLTFTVQLSNKLIMDIRRFIKKYYDGWLICEEPTCRNRTRHLPLQFSRTGPLCPACMKATLQPEYSDKSLYTQLCFYRYIFDAECALEKLTTDHEKDKLKKQFFTPKVLQDYRKLKNTAEQFLSRSGYSEVNLSKLFAGCAVKS
notes: PolA1, subunit of DNA polymerase α-primase, endogenous; the subunit to which the PLA antibody was directed; The results name the partner as the complex DNA polymerase α-primase; the antibody of the PLA was against PolA1; source: endogenous, in fixed HeLa 1.2.11 cells

Target: T1, STN1, endogenous (HeLa) (human (endogenous in HeLa), UniProt Q9H668 1-368)
T1 construct: STN1 (OBFC1), subunit of the CST complex, endogenous; also called OBFC1; source: endogenous, in fixed HeLa 1.2.11 cells
T1 sequence (looked up): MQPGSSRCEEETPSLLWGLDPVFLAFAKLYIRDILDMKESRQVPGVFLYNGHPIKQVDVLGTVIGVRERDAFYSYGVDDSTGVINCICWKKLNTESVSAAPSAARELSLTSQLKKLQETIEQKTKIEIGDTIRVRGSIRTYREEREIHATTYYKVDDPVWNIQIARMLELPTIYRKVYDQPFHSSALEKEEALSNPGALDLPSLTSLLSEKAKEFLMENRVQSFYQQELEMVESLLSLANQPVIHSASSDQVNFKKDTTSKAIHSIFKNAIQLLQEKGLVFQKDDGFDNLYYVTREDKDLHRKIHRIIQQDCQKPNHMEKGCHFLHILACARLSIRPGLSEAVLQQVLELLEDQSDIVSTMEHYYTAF
Assay: proximity ligation; fixed HeLa 1.2.11 cells, Duolink PLA kit, antibodies to the endogenous proteins (mouse α-STN1 with rabbit α-SMC3, α-PolA1 or α-MCM7); untreated cells, and for STN1 with SMC3 also after HU (2 mM, 2 h), APH (1 μM, 2 h) or CPT (1 μM, 1 h)
Conditions: partners not purified

Binder | PLA foci per cell (average) [foci per cell] | fold increase in PLA foci after HU, APH or CPT against untreated cells [fold]
B1 | ~6 | ~2
B2 | 2.5 | 
